Measured values as given in US20260103686A1, “MICROBIAL STRAIN, PROTEIN, AND METHOD FOR PRODUCING GALLIC ACID USING MICROBIAL STRAIN OR PROTEIN” (UNIVERSITY OF TSUKUBA, priority 2022, published 2026).

Assays:
[1] = Reaction kinetic analysis of purified enzymes, substrate PCA (NADPH absorbance at 340 nm); assay type: biochemical; settings: relative to PaPobA
Description: Using the purified enzyme liquids of HgPobA, HgPobA-TY, PoPobA, HyPobA and PaPobA described above, a reaction kinetic analysis was conducted.

[2] = Analysis of gallic acid-producing activities of purified enzymes (HPLC); assay type: biochemical; settings: 2 mM PCA, 0.5 mM NADPH, 10 μg enzyme, 30° C., 30 minutes, pH 7.9
Description: Using the purified enzyme liquids of HyPobA, PoPobA, HgPobA-TY and PaPobA described above, the gallic acid-producing activities were analyzed.
By adding 10 μM FAD, 0.5 mM NADPH, 2 mM PCA and 10 μg of the respective purified enzyme liquids to 20 mM Tris-HCl buffer (pH 7.9), 100 μL of reaction liquids were prepared.

B1: HgPobA: Hylemonella gracilis-derived PobA, protocatechuic acid 5-hydroxylase (SEQ ID NO: 20) (protein, listed as Hylemonella gracilis)
chain: MSYPTRTQVAIIGAGPSGLMLGALLHKAGIDTVVLERQSGDYVLGRIRAGVLEQVTMDLMDEIGVGARMHQEGLVHGGFDMLFQGQRHRIDMNRLTGGQNVMVYGQTEVTRDLMDARQQAGLTTIYEAANVAIHDFGSGKPRVTYEKDGKTHELQCDFIAGCDGFHGVCRDTVKKSASASAIREYEKVYNFGWLGLLSDTPPVHHELIYVNSERGFALCSQRSATRSRYYLQVPLTDKVEQWSDQAFWDELKLRLDPQAREHLVTGPSIEKSIAPLRSFVTEPLRFGRLFLAGDAGHIVPPAGAKGLNLAATDVKYLSAALTEFYQGKSEAGINHYSERCLKRIWRAERFSWWFTSLMHRFPENGEIGQKLQEAELDYIVHSETGARSVAENFVGLPLDFGA
- kcat value for PCA compared with that of PaPobA [1]: higher kcat values than that of PaPobA

B2: PoPobA: Polaromonas sp.-derived PobA, protocatechuic acid 5-hydroxylase (SEQ ID NO: 22) (protein, listed as Polaromonas sp.)
chain: MRTQVGIVGAGPAGLMLSHMLHLEGIESVIIERASREHVQSRLRAGVLEHGTVDMLRELGLGERIGKIGLEQHAIDFRFGGESHRLDFHQATNGRSAWVYPQHELVTDLMNARMQAGAEILFETPVTRIDGLHTSKPTVHFEQGGEPRELVCDFVVGCDGFRGVCRDAIPDTVLKTYDRVYPFGWLGILAEAPAPTREITWGCHEEGFAMLSIRSPSVTRLYLQCEPDDDPDHWSDDHIWAELHKRLDVPGMPPVNEGKIMQKGVTAMRSFLAEPMQYGKLFLAGDAAHIVPPTGAKGLNSAMADVKVLGRGLAEKYRRGADHLLERYSQICLKRMWLVQRFSAGLCTMVHQFPGDNAFVRRLQRADLDYMTGTAAGRLAFSENFTGLPIE
- relative activity of producing gallic acid from PCA (PaPobA regarded as 1) [2]: 20 times
- kcat value for PCA compared with that of PaPobA [1]: higher kcat values than that of PaPobA

B3: HyPobA: Hydrogenophaga sp.-derived PobA, protocatechuic acid 5-hydroxylase (SEQ ID NO: 21) (protein, listed as Hydrogenophaga sp.)
chain: MRTQVGIIGAGPAGLMLAHMLHLEGIESVIIERSKREHVQNRLRAGVLEQGTVEMMRELGLGERIGQLGLEQHRIDFRFGGESHPIDFHEATGGRSAWVYPQHEVVKDLMAARTAAGAQMLFETPVTAIEGIDGTRPVVRFEKDGVAGELHCDFVVGCDGFRGISRRAIPAREGQVHDRIYPFGWLGILAEAPPATNEVTWGCHEDGFAMMSIRTPSVTRLYLQCEPDENPDHWSDDRIWSALHKRLDVPGLPPINEGRITQKGVTAMRSFLFEPMQHGRLFLAGDAAHIVPPTGAKGLNSAMADVKVLARALEQHYQRGSQDLLARYSKTCLKRMWLVQRFSAGLCTMVHSFAGDSSFVRRLQRADLDYMTGTTAGRLQFSENFTGLPID
- relative activity of producing gallic acid from PCA (PaPobA regarded as 1) [2]: 20 times
- kcat value for PCA compared with that of PaPobA [1]: higher kcat values than that of PaPobA

B4: HgPobA-TY: mutant protein of HgPobA with two mutations T302A and Y393F (protein, listed as Hylemonella gracilis)
chain: MSYPTRTQVAIIGAGPSGLMLGALLHKAGIDTVVLERQSGDYVLGRIRAGVLEQVTMDLMDEIGVGARMHQEGLVHGGFDMLFQGQRHRIDMNRLTGGQNVMVYGQTEVTRDLMDARQQAGLTTIYEAANVAIHDFGSGKPRVTYEKDGKTHELQCDFIAGCDGFHGVCRDTVKKSASASAIREYEKVYNFGWLGLLSDTPPVHHELIYVNSERGFALCSQRSATRSRYYLQVPLTDKVEQWSDQAFWDELKLRLDPQAREHLVTGPSIEKSIAPLRSFVTEPLRFGRLFLAGDAGHIVPPAGAKGLNLAATDVKYLSAALTEFYQGKSEAGINHYSERCLKRIWRAERFSWWFTSLMHRFPENGEIGQKLQEAELDYIVHSETGARSVAENFVGLPLDFGA
- relative activity of producing gallic acid from PCA (PaPobA regarded as 1) [2]: eight
- Km value for PCA compared with that of PaPobA [1]: one third or less

B5: PaPobA: Pseudomonas aeruginosa-derived PobA (SEQ ID NO: 28), known enzyme with high PCA-hydroxylating activity (protein, listed as Pseudomonas aeruginosa)
chain: MKTQVAIIGAGPSGLLLGQLLHKAGIDNVILERQTPDYVLGRIRAGVLEQGMVDLLREAGVDRRMARDGLVHEGVEIAFAGQRRRIDLKRLSGGKTVTVYGQTEVTRDLMEAREACGATTVYQAAEVRLHDLQGERPYVTFERDGERLRLDCDYIAGCDGFHGISRQSIPAERLKVFERVYPFGWLGLLADTPPVSHELIYANHPRGFALCSQRSATRSRYYVQVPLSEKVEDWSDERFWTELKARLPSEVAEKLVTGPSLEKSIAPLRSFVVEPMQHGRLFLAGDAAHIVPPTGAKGLNLAASDVSTLYRLLLKAYREGRGELLERYSAICLRRIWKAERFSWWMTSVLHRFPDTDAFSQRIQQTELEYYLGSEAGLATIAENYVGLPYEEIE
- relative activity of producing gallic acid from PCA (PaPobA regarded as 1) [2]: 1 times
